{
  "source": "patent US7132258",
  "biological_target": "Gal4 DBD fusion of the LBD of hRARα (human)",
  "experiment": "cell-based or functional assay",
  "data": [
    {"substance": "full-length RAC3 expressed from pCMX.F.RAC3 (FLAG and HA epitope at the N-terminus) (from UniProt Q9Y6Q9 2-1424)", "values": [
      {"measurement": "ligand-dependent transcriptional activation by Gal4 DBD fusion of RAR on a Gal4-dependent luciferase reporter, A549 cells, 100 nM atRA", "value": 2, "unit": "fold"}
    ]}
  ]
}
